From article PMC6858323, “Multiple conformations facilitate PilT function in the type IV pilus” (Nature Communications, 2019)
Each block holds one substance with its values, some of them ahead of it.

Legend:
[1] = target: reductively methylated PilT4 from Geobacter metallireducens (methylated PilT^Gm) (Geobacter metallireducens GS-15); assay: crystal structure; methylated PilT^Gm, no added nucleotide; vapor diffusion 20 °C; 200 mM ammonium sulfate, 100 mM Bis-Tris-HCl pH 6.5, 25% PEG3350; 3.3 Å; OCOCOC conformation
[2] = target: PilB from Geobacter metallireducens (PilB^Gm) (Geobacter metallireducens); assay: cryo-EM structure; PilB^Gm 0.6 mg/ml without added nucleotide, 4 °C; 2D class averages and 7.8 Å 3D map, CCOCCO conformation
[3] = target: PilT4 from Geobacter metallireducens (PilT^Gm) (Geobacter metallireducens GS-15); assay: crystal structure; PilT^Gm with 2 mM ANP and 2 mM MgCl2; 2% benzamidine-HCl, 100 mM HEPES-HCl pH 7.9, 200 mM ammonium acetate, 17.5% PEG3350; 20 °C; anisotropic 4.1, 6.7 and 4.0 Å; CCOCCO conformation
[4] = target: PilT4 from Geobacter metallireducens (PilT^Gm) (Geobacter metallireducens GS-15); assay: cryo-EM structure; PilT^Gm 0.5 mg/ml without added nucleotide, 4 °C; untilted 2D class averages and 40° tilted 3D maps (OCOCOC 4.0 Å, OOCOOC 4.1 Å); 2D class averages also with 1 mM MgCl2 plus 0.1 or 1 mM ADP
[5] = target: PilT4 from Geobacter metallireducens (PilT^Gm) (Geobacter metallireducens GS-15); assay: crystal structure; PilT^Gm with 2 mM ATP and 2 mM MgCl2; 9% PEG4000, 100 mM MES pH 6, 200 mM MgCl2; 20 °C; 1.9 Å; CCCCCC conformation
[6] = target: PilT4 from Geobacter metallireducens (PilT^Gm) (Geobacter metallireducens GS-15); assay: cryo-EM structure; PilT^Gm 0.5 mg/ml incubated 10 min at 4 °C with 1 mM MgCl2 plus 1 mM ATP; 4.4 Å map, CCCCCC conformation; 2D class averages also with 1 mM ATP plus 0.1 or 1 mM ADP
[7] = target: PilT4 from Geobacter metallireducens (PilT^Gm) (Geobacter metallireducens GS-15); assay: crystal structure; PilT^Gm without added nucleotide (partial-occupancy ADP, pH 7.1, 3.0 Å) or preincubated with Mg2+ and ATP and unbound nucleotide removed (full-occupancy ADP, pH 7.6); 11.5% PEG3350, 200 mM L-proline, 100 mM HEPES; 20 °C; OCOCOC conformation, pseudo-C3

stoichiometry N [1]: 6
Substance: reductively methylated PilT4 from Geobacter metallireducens (methylated PilT^Gm) (enzyme)

stoichiometry N [2]: 6
Substance: PilB from Geobacter metallireducens (PilB^Gm) (enzyme)

stoichiometry N [3]: 6
stoichiometry N [4]: 6
stoichiometry N [5]: 6
stoichiometry N [6]: 6
stoichiometry N [7]: 6
Substance: PilT4 from Geobacter metallireducens (PilT^Gm) (enzyme)
